Kd data for one molecule are collected here from PMC3154093 (Science (New York, N.Y.), 2011).

Assay [1] concerns the target Neurocan-alkaline phosphatase (UniProt P55066 23-1268, chondroitin sulfate glycosaminoglycan chains). The assay is described as follows: solid-phase binding assay.
The target in another assay is T1, glypican-2-AP (UniProt Q8BKV1 22-556, heparan sulfate glycosaminoglycan chains).
T1 sequence (looked up): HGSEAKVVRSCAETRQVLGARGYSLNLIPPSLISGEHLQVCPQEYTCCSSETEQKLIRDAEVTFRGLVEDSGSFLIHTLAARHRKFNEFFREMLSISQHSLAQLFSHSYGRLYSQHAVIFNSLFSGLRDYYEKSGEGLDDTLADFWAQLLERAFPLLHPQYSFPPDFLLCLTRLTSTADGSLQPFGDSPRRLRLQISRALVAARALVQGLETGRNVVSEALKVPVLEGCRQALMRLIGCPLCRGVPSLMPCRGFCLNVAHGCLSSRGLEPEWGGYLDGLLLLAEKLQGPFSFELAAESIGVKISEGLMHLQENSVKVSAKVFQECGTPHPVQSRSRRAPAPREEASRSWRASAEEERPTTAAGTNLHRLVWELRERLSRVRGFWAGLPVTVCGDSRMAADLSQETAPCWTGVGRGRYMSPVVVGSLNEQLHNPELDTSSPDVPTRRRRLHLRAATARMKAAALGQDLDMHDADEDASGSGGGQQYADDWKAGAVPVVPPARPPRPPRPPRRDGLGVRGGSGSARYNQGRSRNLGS
In words: solid-phase binding assay.

Neurocan-alkaline phosphatase, sequence (P55066 23-1268): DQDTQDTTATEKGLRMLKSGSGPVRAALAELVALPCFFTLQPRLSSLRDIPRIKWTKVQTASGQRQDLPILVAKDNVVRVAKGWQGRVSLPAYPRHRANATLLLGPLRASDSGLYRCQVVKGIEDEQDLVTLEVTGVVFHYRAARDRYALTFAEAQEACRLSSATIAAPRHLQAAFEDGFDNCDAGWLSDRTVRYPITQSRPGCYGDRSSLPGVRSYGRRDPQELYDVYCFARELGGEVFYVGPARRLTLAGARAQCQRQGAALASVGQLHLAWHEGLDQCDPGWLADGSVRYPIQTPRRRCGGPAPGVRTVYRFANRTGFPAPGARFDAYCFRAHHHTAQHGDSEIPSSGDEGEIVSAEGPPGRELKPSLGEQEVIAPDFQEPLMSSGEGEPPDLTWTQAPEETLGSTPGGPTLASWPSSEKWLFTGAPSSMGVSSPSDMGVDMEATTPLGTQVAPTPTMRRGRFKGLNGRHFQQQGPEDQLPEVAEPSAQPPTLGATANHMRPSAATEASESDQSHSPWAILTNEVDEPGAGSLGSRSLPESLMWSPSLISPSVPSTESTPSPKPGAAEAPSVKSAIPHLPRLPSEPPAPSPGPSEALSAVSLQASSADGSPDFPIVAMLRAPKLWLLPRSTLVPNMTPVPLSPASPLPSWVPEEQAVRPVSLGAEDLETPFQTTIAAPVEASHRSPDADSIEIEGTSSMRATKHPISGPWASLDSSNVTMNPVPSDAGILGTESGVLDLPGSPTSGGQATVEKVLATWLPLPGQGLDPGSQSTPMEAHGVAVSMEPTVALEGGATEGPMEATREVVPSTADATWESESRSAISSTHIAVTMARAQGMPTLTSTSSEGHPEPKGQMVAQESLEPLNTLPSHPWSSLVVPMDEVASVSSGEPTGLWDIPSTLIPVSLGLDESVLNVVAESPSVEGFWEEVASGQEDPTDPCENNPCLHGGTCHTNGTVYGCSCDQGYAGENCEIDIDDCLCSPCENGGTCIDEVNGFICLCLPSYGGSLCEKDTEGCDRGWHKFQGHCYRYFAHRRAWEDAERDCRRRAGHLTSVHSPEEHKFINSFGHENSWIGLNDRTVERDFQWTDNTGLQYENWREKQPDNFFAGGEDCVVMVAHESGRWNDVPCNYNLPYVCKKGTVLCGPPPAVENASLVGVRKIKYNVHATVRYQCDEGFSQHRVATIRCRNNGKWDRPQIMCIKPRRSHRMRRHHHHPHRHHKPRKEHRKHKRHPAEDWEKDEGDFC

B1: mouse RPTPσ sEcto-Fc (Fc fusion)
chain: EEPPRFIREPKDQIGVSGGVASFVCQATGDPKPRVTWNKKGKKVNSQRFETIDFDESSGAVLRIQPLRTPRDENVYECVAQNSVGEITIHAKLTVLREDQLPPGFPNIDMGPQLKVVERTRTATMLCAASGNPDPEITWFKDFLPVDPSASNGRIKQLRSGALQIESSEETDQGKYECVATNSAGVRYSSPANLYVRVRRVAPRFSILPMSHEIMPGGNVNITCVAVGSPMPYVKWMQGAEDLTPEDDMPVGRNVLELTDVKDSANYTCVAMSSLGVIEAVAQITVKSLPKAPGTPVVTENTATSITVTWDSGNPDPVSYYVIEYKSKSQDGPYQIKEDITTTRYSIGGLSPNSEYEIWVSAVNSIGQGPPSESVVTRTGEQAPASAPRNVQARMLSATTMIVQWEEPVEPNGLIRGYRVYYTMEPEHPVGNWQKHNVDDSLLTTVGSLLEDETYTVRVLAFTSVGDGPLSDPIQVKTQQGVPGQPMNLRAEAKSETSIGLSWSAPRQESVIKYELLFREGDRGREVGRTFDPTTAFVVEDLKPNTEYAFRLAARSPQGLGAFTAVVRQRTLQAISPKNFKVKMIMKTSVLLSWEFPDNYNSPTPYKIQYNGLTLDVDGRTTKKLITHLKPHTFYNFVLTNRGSSLGGLQQTVTARTAFNMLSGKPSVAPKPDNDGFIVVYLPDGQSPVTVQNYFIVMVPLRKSRGGQFPVLLGSPEDMDLEELIQDISRLQRRSLRHSRQLEVPRPYIAARFSILPAVFHPGNQKQYGGFDNRGLEPGHRYVLFVLAVLQKNEPTFAASPFSDPFQLDNPDPQPIVDGEEG
On to B1, for which the values for the Kd (in assay [1]; with glypican-2-AP) were roughly 21 nM and roughly 10 nM, respectively.

For orientation: Kd means the concentration at which binding is half-saturated. High values mean weaker binding, low ones tighter binding.
